{"source": "paper PMC10998826", "about": "(EJNMMI Research, 2024)", "key": {"Dosimetry of stomach": {"test": "Dosimetry of stomach", "assay_type": "in vivo, humans", "settings": "for Stomach dose: gastric wall", "method": "(§1) Planar whole-body scintigraphy and quantitative SPECT/CT acquisitions of neck/thorax/abdomen/pelvis were acquired with a hybrid SPECT/CT system (Siemens Intevo, Siemens Erlangen, Germany) at 1, 4, 24 and 72 h post injection (p.i.).\nA conservative segmentation approach was adopted for gastric dosimetry to ensure that the VOI included all activity distributed in the gastric wall. TACs were analyzed in the same way as for the tumor dosimetry with a mono-exponential model. The average absorbed dose D in the gastric wall was then calculated by using D=N·E/m , where N is the total number of disintegrations, E the average energy deposited in tissue and m = 0.15 kg is the mass of the stomach wall."}, "[1]": {"test": "SPECT/CT based dosimetry of tumors", "assay_type": "in vivo, humans", "settings": "human, iv, total radioactivity", "method": "(§2) Patients were allowed a light breakfast at the day of each infusion. […] Entresto® was given at an oral dose of 100 mg, containing 48.6 mg sacubitril and 51.4 mg valsartan 2 h before the start of one of the two infusions. Vital signs were recorded, and a 12-lead electrocardiogram was obtained before and after each injection. Adverse events were recorded and graded according to Common Terminology Criteria for Adverse Events (CTCAE) version 4.03.\nas §1\n(§3) Calibration of the SPECT/CT camera was performed with a National Institute of Standards and Technology traceable selenium-75 point source (uncertainty in activity 3%) every four weeks. Acquisitions (medium-energy low-penetration collimator) were performed in step and shoot mode using 20 s/view, 64 views/head using a non-circular orbit with a 180° detector configuration in a 128 × 128 matrix. The photo-peak window was set to 208 keV ± 10% (187.2–228.8 keV). Except for the first patient, the quantitative tomographic images (isotropic voxel size 5.08 mm^3) were reconstructed with xSPECT Quant™ (Siemens Healthcare, Siemens Erlangen, Germany) which uses the ordered subset conjugate gradient method (OSCGM) to calculate the quantitative activity distribution. The number of iterations (12, 24 or 60) with one subset and 3D-Gaussian post-filter with full width at half maximum (FWHM) of 16.0 mm and 20.8 mm were selected automatically by the reconstruction algorithm, based on the count statistic. Triple energy window scatter correction, CT-based attenuation correction, and resolution recovery were enabled for all image reconstructions. As the xSPECT Quant™ algorithm was not available at the site initially, images of the first patient were quantitatively reconstructed (isotropic voxel size of 3.9 mm^3) using the OSCGM algorithm with 24 iterations, one subset and a 3D-Gaussian post filter of 10.0 mm FWHM. For these reconstructions, both photo-peak energy windows at 113 keV ± 10% and 208 keV ± 10% were used. All other settings remained as stated above.\n(§4) At first a VOI with volume V0 and activity A0 enclosing the tumor and its surrounding background was drawn. Subsequently, the threshold was increased until a new VOI with volume Vspect and activity Aspect separating the tumor activity from background was found. The activity in the tumor at the fourth time point can then be estimated by A4=Aspect-A0-Aspect/V0-VspectVspect-VCT, where the second term is the background correction, with the tumor volume VCT determined in the contrast enhanced CT. Spill in and out of activity from the tumor volume into the background was not considered.\n(§5) Time activity curves (TAC) of the tumors were determined using the mean activity of 3 ml threshold VOIs, drawn in the 1, 4, 24 and 72 h p.i. images. A linear model yt=α+λe·t was fitted to the log-transformed data points to estimate the effective half-life Te=ln2/λe . The activity at the first acquisition is then given by A1=A4·e^λe·Δt where Δt is the time difference between the first and fourth acquisition. The total number of disintegrations can then be estimated by N=A1t1/2+∫t1e^-λet^′dt^′ where t1 is the time of the first acquisition.\n(§6) The average energy deposition E per disintegration in soft tissue voxels of 3.9 mm^3 and 5.08^3 mm^3 with density ρ=1g/cm^3 was calculated with FLUKA, resulting in the mean tumor dose given by D=N·E/ρ·VCT .\n(§7) In case the data was not suitable for single exponential fit, N was calculated numerically using trapezoidal integration until the fourth time point and after with analytical integration of the exponential decay using the half-live of Lutetium-177.\n(§8) The energy distribution in ICRP soft tissue of a Lu-177 point source was calculated with the MC-Simulation toolkit FLUKA version 4.1.0."}, "[2]": {"system": "medullary thyroid carcinoma tumors", "test": "SPECT/CT based dosimetry of tumors", "assay_type": "in vivo, humans", "settings": "for Mean tumor dose: SPECT/CT dosimetry", "method": "as §2, §1, §3, §4, §5, §6, §7, §8"}, "[3]": {"test": "Acute toxicity, adverse events graded by CTCAE version 4.03", "assay_type": "in vivo, humans", "settings": "all patients, with and without Entresto premedication", "method": "as §2"}, "Bone marrow dosimetry": {"test": "Bone marrow dosimetry", "assay_type": "in vivo, humans", "settings": "for Bone marrow dose: median", "method": "Bone marrow and kidney dosimetry was performed as described before."}, "CCK2R positive tumors": {"system": "CCK2R positive tumors", "settings": "athymic mouse model; cited from earlier work", "text": "About 90% of medullary thyroid carcinomas (MTCs) express the transmembrane G protein–coupled cholecystokinin 2 receptor (CCK2R) at a high density, making CCK2R an interesting target for peptide receptor radionuclide therapy (PRRT). Recently, a new generation of radiolabeled minigastrin derivatives, targeting CCK2R, with improved and promising properties was introduced. First clinical trials explore the potential of such compounds for imaging and PRRT of CCK2R expressing tumors, in particular for MTC [3–5]. However, the reported tumor radiation doses were lower than those usuall ..."}, "[4]": {"settings": "Entresto premedication, eight patients"}}, "note": "Like-named read-outs stand apart in the source and are kept apart here.", "data": [{"smiles": "CSCC[C@H](NC(=O)[C@H](Cc1c[nH]c2ccccc12)NC(=O)CNC(=O)[C@H](Cc1ccc(O)cc1)NC(=O)[C@H](C)NC(=O)[C@@H](CCC(=O)O)NC(=O)[C@@H](CCC(=O)O)NC(=O)[C@@H](CCC(=O)O)NC(=O)[C@@H](CCC(=O)O)NC(=O)[C@@H](CCC(=O)O)NC(=O)[C@@H](CCC(=O)O)NC(=O)CN1CCN(CC(=O)O)CCN(CC(=O)O)CCN(CC(=O)O)CC1)C(=O)N[C@@H](CC(=O)O)C(=O)N[C@@H](Cc1ccccc1)C(N)=O", "note": "[[^177Lu]Lu-PP-F11N, [^177Lu]Lu-DOTA-(DGlu)6-Ala-Tyr-Gly-Trp-Met-Asp-Phe-NH2, metal not drawn]", "values": [{"measurement": "Median absorbed dose of stomach after premedication compared to without", "setting": "Dosimetry of stomach; [4]", "result": 2.1, "unit": "fold"}, {"measurement": "Stomach dose", "setting": "Dosimetry of stomach; with Entresto premedication, median", "result": 0.5, "unit": "Gy/GBq"}, {"measurement": "Stomach dose", "setting": "Dosimetry of stomach; without Entresto premedication, median", "result": 0.2, "unit": "Gy/GBq"}, {"measurement": "Stomach dose", "setting": "Dosimetry of stomach; without Entresto premedication, patient 4", "result": 0.23, "unit": "Gy/GBq"}, {"measurement": "Stomach dose", "setting": "Dosimetry of stomach; without Entresto premedication, patient 7", "result": 0.17, "unit": "Gy/GBq"}, {"measurement": "tissue to tissue ratio", "setting": "[1]; tumor / bone marrow, 1.08 GBq, without Entresto premedication, patient 4, 2nd tumor, read-out: Tumor-to-bone marrow dose ratio", "result": 1.8}, {"measurement": "tissue to tissue ratio", "setting": "[1]; tumor / bone marrow, with Entresto premedication, patient 4, 2nd tumor, read-out: Tumor-to-bone marrow dose ratio", "result": 1.4}, {"measurement": "tissue to tissue ratio", "setting": "[1]; tumor / kidney, 1.08 GBq, without Entresto premedication, patient 4, 2nd tumor, read-out: Tumor-to-kidney dose ratio", "result": 1}, {"measurement": "tissue to tissue ratio", "setting": "[1]; tumor / kidney, with Entresto premedication, patient 4, 2nd tumor, read-out: Tumor-to-kidney dose ratio", "result": 0.6}, {"measurement": "tissue to tissue ratio", "setting": "[1]; tumor / stomach, 1.08 GBq, without Entresto premedication, patient 4, 2nd tumor, read-out: Tumor-to-stomach dose ratio", "result": 0.2}, {"measurement": "tissue to tissue ratio", "setting": "[1]; tumor / stomach, with Entresto premedication, patient 4, 2nd tumor, read-out: Tumor-to-stomach dose ratio", "result": 0.1}, {"measurement": "tissue to tissue ratio", "setting": "[1]; tumor and bone marrow, 1.08 GBq, without Entresto premedication, patient 7, 2nd tumor, read-out: Tumor-to-bone marrow dose ratio", "result": 15.7}, {"measurement": "tissue to tissue ratio", "setting": "[1]; tumor and bone marrow, with Entresto premedication, patient 7, 2nd tumor, read-out: Tumor-to-bone marrow dose ratio", "result": 30.3}, {"measurement": "tissue to tissue ratio", "setting": "[1]; tumor and kidney, 1.08 GBq, without Entresto premedication, median, read-out: Tumor-to-kidney dose ratio", "result": 8.3}, {"measurement": "tissue to tissue ratio", "setting": "[1]; tumor and kidney, with Entresto premedication, median, read-out: Tumor-to-kidney dose ratio", "result": 7.8}, {"measurement": "tissue to tissue ratio", "setting": "[1]; tumor and kidney, with Entresto premedication, patient 7, 2nd tumor, read-out: Tumor-to-kidney dose ratio", "result": 11.2}, {"measurement": "tissue to tissue ratio", "setting": "[1]; tumor and stomach, 1.08 GBq, without Entresto premedication, median, read-out: Tumor-to-stomach dose ratio", "result": 1.5}, {"measurement": "tissue to tissue ratio", "setting": "[1]; tumor and stomach, with Entresto premedication, median, read-out: Tumor-to-stomach dose ratio", "result": 1.1}, {"measurement": "tissue to tissue ratio", "setting": "[1]; tumor and stomach, with Entresto premedication, patient 7, 2nd tumor, read-out: Tumor-to-stomach dose ratio", "result": 1.3}, {"measurement": "Mean tumor dose", "setting": "[2]; with Entresto premedication, median of n = 6 tumor lesions", "result": 0.74, "unit": "Gy/GBq"}, {"measurement": "Mean tumor dose", "setting": "[2]; with Entresto premedication, patient 4, 2nd tumor", "result": 0.07, "unit": "Gy/GBq"}, {"measurement": "Mean tumor dose", "setting": "[2]; without Entresto premedication, median of n = 6 tumor lesions", "result": 0.28, "unit": "Gy/GBq"}, {"measurement": "Mean tumor dose", "setting": "[2]; without Entresto premedication, patient 4, 2nd tumor", "result": 0.05, "unit": "Gy/GBq"}, {"measurement": "tissue to tissue ratio", "setting": "[2]; human, tumor and bone marrow, iv, total radioactivity, without Entresto premedication, median, read-out: Tumor-to-bone marrow dose ratio", "result": 9.2}, {"measurement": "Serious adverse events", "setting": "[3]", "result": "No serious adverse event"}, {"measurement": "Median absorbed dose of bone marrow after premedication compared to without", "setting": "Bone marrow dosimetry; [4]", "result": 1.4, "unit": "fold"}, {"measurement": "Bone marrow dose", "setting": "Bone marrow dosimetry; with Entresto premedication", "result": 0.05, "unit": "Gy/GBq"}, {"measurement": "Bone marrow dose", "setting": "Bone marrow dosimetry; without Entresto premedication", "result": 0.03, "unit": "Gy/GBq"}, {"measurement": "Increase in tumor uptake on co-injection of phosphoramidon", "setting": "CCK2R positive tumors", "result": "not significant"}, {"measurement": "Increase in tumor uptake on co-injection of thiorphan", "setting": "CCK2R positive tumors", "result": "only to a minor extent"}]}]}
